Conditions in all cases: remark: other sources report otherwise
Experiment [1] addresses SARS-CoV-2 RBD domain, Wuhan (SARS-CoV-2). Briefly: ELISA. Details: unit not given beside the values.
Experiment [2] has the same target. Briefly: ELISA. More on the design: unit not given beside the values. This is another data set of the same source. For orientation: An ELISA detects its analyte on a solid surface through an enzyme-linked reagent.
The target in experiment [3] is CoV-MERS Spike ectodomain (MERS-CoV), K9N5Q8. Kind of experiment: ELISA, coated antigen.
The target of experiment [4] is SARS-CoV-1 Spike ectodomain (SARS-CoV-1), P59594. Kind of experiment: ELISA, coated antigen.
For experiment [5], the target named is SARS-CoV-2 RBD domain, Wuhan (SARS-CoV-2). Briefly: ELISA, coated antigen.
Experiment [6] addresses T1, SARS-CoV-2 Spike (S) protein on cells (S-Flow assay) (SARS-CoV-2), P0DTC2. Kind of experiment: flow cytometry, transfected cells.
The target in experiment [7] is SARS-CoV-2 RBD domain, Wuhan (SARS-CoV-2). Kind of experiment: SPR (Biacore), antibody immobilised.
Experiment [8] shares this target. Kind of experiment: RBD-ACE2 competition ELISA. Details: unit not given beside the values.
Experiment [9] has the same target. Kind of experiment: RBD-ACE2 competition ELISA. Details: unit not given beside the values. This is another data set of the same source.
Experiment [10] deals with T1, SARS-CoV-2 Spike (S) protein on cells …. Briefly: S-Flow flow cytometry, spike-expressing cells.
Experiment [11] addresses SARS-CoV-2 RBD domain, Wuhan (SARS-CoV-2). Kind of experiment: competition ELISA vs bio-Cv2.1169.
Experiment [12] has the same target. Kind of experiment: competition ELISA vs bio-Cv2.1353.
The target is the same in experiment [13]. Kind of experiment: competition ELISA vs bio-Cv2.3194.
For experiment [14] the target is unchanged. Kind of experiment: competition ELISA vs bio-Cv2.3235.
For experiment [15] the target is unchanged. Kind of experiment: competition ELISA vs bio-Cv2.5213.
For experiment [16] the target is unchanged. Kind of experiment: SPR (Biacore), antibody coupled to CM5 chip, viral protein as analyte. On the technique in general: Surface plasmon resonance follows binding to a sensor surface in real time, without labels.
The target is the same in experiment [17]. Kind of experiment: ELISA. Details: unit not given beside the values. The source holds these as a separate data set.
The target is the same in experiment [18]. Briefly: RBD/ACE2 blocking ELISA.
Experiment [19] has the same target. Kind of experiment: ELISA.
The target in experiment [20] is T1, SARS-CoV-2 Spike (S) protein on cells …. Kind of experiment: flow cytometry (Mock 2.5). (In general: In flow cytometry, cells or beads pass a laser one at a time.)

Numbering of substitutions follows the chain as printed. Some results are limits rather than exact numbers.
Throughout, for % inhibition (competition): test concentration or dose not given here.

B1: Cv2.1353 (recombinant human IgG1) (antibody)
heavy: EVQLVESGGGLVQPGGSLRLSCAASGVTVSSNYMNWVRQAPGKGLEWVSVIYSGGSTFYADSVKGRFIISRDNSKNTLYLQMNSLKTEDTAVYYCARDLGPMGFDIWGQGTMVTVSSASTKGPSVFPLAPSSKSTSGGTAALGCLVKDYFPEPVTVSWNSGALTSGVHTFPAVLQSSGLYSLSSVVTVPSSSLGTQTYICNVNHKPSNTKVDKKVEPKSCDKTHTCPPCPAPELLGGPSVFLFPPKPKDTLMISRTPEVTCVVVDVSHEDPEVKFNWYVDGVEVHNAKTKPREEQYNSTYRVVSVLTVLHQDWLNGKEYKCKVSNKALPAPIEKTISKAKQPREPQVYTLPPSRDELTKNQVSLTCLVKGFYPSDIAVEWESNGQPENNYKTTPPVLDSDGSFFLYSKLTVDKSRWQQGNVFSCSVMHEALHNHYTQKSLSLSPGK
light: DIQMTQSPSFLSASVGDRVTITCRASQGISSYLAWYQQKPGKAPKLLIYAASTLQSGVPSRFSGSGSGTEFTLTISSLQPEDFATYYCQQLNSDPPVTFGPGTKVDIKRTVAAPSVFIFPPSDEQLKSGTASVVCLLNNFYPREAKVQWKVDNALQSGNSQESVTEQDSKDSTYSLSSTLTLSKADYEKHKVYACEVTHQGLSSPVTKSFNRGEC
Turning to B1, the AUC (RBD bind.) in [1] turned out to be 12; in [2], 13. The values for the ELISA OD in experiment [3], in [4] and in experiment [5] were 0.1 OD, 0.1 OD and 3.5 OD, respectively. The log10 ΔgMFI in experiment [6] worked out at 4. The Kd (commonly the constant that tells how readily two partners part at equilibrium) in experiment [7] was 2.24 nM; in experiment [16], less than 0.001 nM. For the same molecule, the AUC (RBD block.) in experiment [8] is 315; in experiment [9], 158. Besides, the S-Flow (%) in experiment [10] was 95%. Besides, in experiment [10], the S-Flow (MFI) is 270000 MFI. The % inhibition (competition) stood at 62 in experiment [11]; 74 in experiment [12]; 74 in experiment [13]; 80 in experiment [14]; 78 in experiment [15].

B2: ADG-2 (antibody, V domains shown)
VH: EVQLVESGGGLVKPGGSLRLSCAASGFTFSSYYMNWVRQAPGKGLEWVSSISEDGYSTYYPDSLKGRFTISRDSAKNSLYLQMNSLRADDTAVYYCARDFSGHTAWAGTGFEYWGQGTLVTVSS
VL: QSVLTQPPSVSGAPGQRITISCTGSSSNIGAGYDVHWYQQLPGTAPKLLIYGSSSRNSGVPDRFSGSKSGTSASLAITGLQAEDEADYYCQSYDSSLSVLYTFGTGTKVTVL
In experiment [17], B2 yielded an AUC of 3. In addition, the % binding inhibition in experiment [18] was 94%.

B3: Adintrevimab (antibody, V domains shown)
VH: B2 VH
VL: B2 VL
As to B3, the OD405nm in experiment [19] came to 3.3. The same molecule registered a log10 ΔgMFI in [20] of 4.4.

B4: COV2-2130 (antibody, V domains shown)
VH: EVQLVESGGGLVKPGGSLRLSCAASGFTFRDVWMSWVRQAPGKGLEWVGRIKSKIDGGTTDYAAPVKGRFTISRDDSKNTLYLQMNSLKTEDTAVYYCTTAGSYYYDTVGPGLPEGKFDYWGQGTLVTVSS
VL: not shown
B4 came in with an AUC in [17] of 3. Moreover, the % binding inhibition in experiment [18] was 96%.

B5: Cilgavimab (antibody, V domains shown)
VH: B4 VH
VL: not shown
The molecule B5 yielded an OD405nm in [19] of 3.2.

B6: Cv2.5213 (recombinant human IgG1) (antibody)
heavy: EVQLVESGGGLIQPGGSLRLSCAASGFTVSSNYMSWVRQAPGKGLEWVSLIYSGGSTYYADSVKGRFTISRDNSKNTLYLQMNSLRAEDTAVYYCARDLNYYGMDVWGQGATVTVSSASTKGPSVFPLAPSSKSTSGGTAALGCLVKDYFPEPVTVSWNSGALTSGVHTFPAVLQSSGLYSLSSVVTVPSSSLGTQTYICNVNHKPSNTKVDKKVEPKSCDKTHTCPPCPAPELLGGPSVFLFPPKPKDTLMISRTPEVTCVVVDVSHEDPEVKFNWYVDGVEVHNAKTKPREEQYNSTYRVVSVLTVLHQDWLNGKEYKCKVSNKALPAPIEKTISKAKQPREPQVYTLPPSRDELTKNQVSLTCLVKGFYPSDIAVEWESNGQPENNYKTTPPVLDSDGSFFLYSKLTVDKSRWQQGNVFSCSVMHEALHNHYTQKSLSLSPGK
light: not shown
Consider B6, for which the AUC (RBD bind.) in [1] was determined as 13. Besides, the ELISA OD amounted to 0.1 OD in [3], 0.1 OD in [4] and 3.5 OD in [5]. Further, in experiment [6], the log10 ΔgMFI is 4. The Kd in experiment [7] was determined as 162 nM. Besides, the AUC (RBD block.) in experiment [8] was 283; in experiment [9] it was 141. Moreover, the S-Flow (%) in experiment [10] stood at 95%. In experiment [10], this molecule displayed a S-Flow (MFI) of 270000 MFI. The % inhibition (competition) in experiment [11] was 43; in experiment [12], 67; in experiment [13], 61; in [14], 80; in [15], 77.

B7: Cv2.3235 (recombinant human IgG1) (antibody)
heavy: B6 heavy with S31R, L50V, Y58F, L99G, N100D, A111T
light: DIQMTQSPSFLSASVGDRVTITCRASQGISSFLAWYQQKPGKAPKLLIYGASTLQSGVTSRFSGSGSGTEFTLTISSLQPEDFATYYCQRLDSYPPITFGQGTRLEIKRTVAAPSVFIFPPSDEQLKSGTASVVCLLNNFYPREAKVQWKVDNALQSGNSQESVTEQDSKDSTYSLSSTLTLSKADYEKHKVYACEVTHQGLSSPVTKSFNRGEC
In experiment [1], B7 showed an AUC (RBD bind.) of 13. For the same molecule, the ELISA OD is 0.2 OD in [3], 0.2 OD in experiment [4] and 3.9 OD in experiment [5]. The log10 ΔgMFI in [6] turned out to be 4. This molecule also yielded a dissociation constant (Kd) in experiment [7] of 280 nM. The values for the AUC (RBD block.) in experiment [8] and in experiment [9] were 229 and 114, respectively. This molecule also displayed a S-Flow (%) in experiment [10] of 97%. The molecule also registered a S-Flow (MFI) in experiment [10] of 170000 MFI. The % inhibition (competition) in [11] came out at 14; in experiment [12], 37; in [13] it was 37; in experiment [14] it was 65; in experiment [15], 47.

These data come from patent publication US20240336672A1.
